Laboratory results taken from patent US20250282866A1 (VIGIL NEUROSCIENCE, published 2025).
Substitutions are numbered along the chain they refer to.

T1: human TREM2 (human, UniProt Q9NZC2 19-174, limits assumed)
T1 construct: also called triggering receptor expressed on myeloid cells 2
T1 sequence: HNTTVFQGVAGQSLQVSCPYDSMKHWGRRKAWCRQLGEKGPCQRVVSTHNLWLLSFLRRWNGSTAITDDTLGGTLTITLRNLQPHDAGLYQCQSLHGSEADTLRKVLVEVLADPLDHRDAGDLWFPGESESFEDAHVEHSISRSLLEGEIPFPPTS

B1: V26 (antibody, V domains shown)
VH: EVQLVQSGAEVKKPGESLKISCKGSGYSFTSYWIGWVRQMPGKGLEWMGTIYPGDSDTRYSPSFQGQVTISADKSISTAYLQWSSLKASDTAMYFCARQRTMYYDSSDYFDAWGQGTLVTVSS
VL: DIQMTQSPSSVSASVGDRVTITCRASQGISSWLAWYQQKPGKAPKLLIYAASSLQRGVPSRFSGSGSGTDFTLTISSLQPEDFATYFCQQADSYPRTFGQGTKLEIK
B2: V40 (antibody, V domains shown)
VH: B1 VH with T30G, G35A, T50I, T58V, M102F, F110S, A112Y
VL: B1 VL with R56L, S93R, Y94F
B3: V48 (antibody, V domains shown)
VH: B1 VH with T30G, G35A, T50I, T58V, Q99M, M102F, A112Y
VL: B1 VL with R56T, Y94L
B4: V41 (antibody, V domains shown)
VH: B1 VH with G35A, M102F, A112Y
VL: B1 VL with R56N, Y94F
B5: V38 (antibody, V domains shown)
VH: B1 VH with T30G, G35A, T50I, T58V, M102F, A112Y
VL: B1 VL with L54R, R56N, Y94H
B6: V28 (antibody, V domains shown)
VH: B1 VH with T30Q, G35A, M102F, Y103F, A112Y
VL: B1 VL with R56S, Y94L
B7: V65 (antibody, V domains shown)
VH: B1 VH with G35A, T50I, Q99S, M102F, A112Y
VL: B1 VL with R56N, Y94F
B8: V37 (antibody, V domains shown)
VH: B1 VH with F29H, G35A, T50I, Q65A, Q99S, M102F, A112Y
VL: B1 VL with R56W
B9: V76 (antibody, V domains shown)
VH: B1 VH with T30G, G35A, T50I, S63E, M102F, F110S, A112Y
VL: B1 VL with R56K, T69R, Y94F
B10: V49 (antibody, V domains shown)
VH: B1 VH with T30N, G35A, Y60L, Q99S, M102F, A112Y
VL: B1 VL with L54R, R56N
B11: V50 (antibody, V domains shown)
VH: B1 VH with T30G, G35A, T50V, M102F, F110L, A112Y
VL: B1 VL with L54R, R56N, Y94L
B12: V62 (antibody, V domains shown)
VH: B1 VH with T30G, G35A, T50I, S61A, M102F, D108G, A112Y
VL: B1 VL with Q89G, Y94F
B13: V27 (antibody, V domains shown)
VH: B1 VH with G35A, T50I, S61A, A97V, Q99S, M102F, A112Y
VL: B1 VL with Y94F
B14: V61 (antibody, V domains shown)
VH: B1 VH with T30S, G35A, T50I, S61N, Q99G, M102F, A112Y
VL: B1 VL with Q55V, R56N, Y94L
B15: V75 (antibody, V domains shown)
VH: B1 VH with G35A, T50I, Q99G, M102F, A112Y
VL: B1 VL with R56A
B16: V63 (antibody, V domains shown)
VH: B1 VH with T30R, G35A, T50I, Q99S, M102F, A112Y
VL: B1 VL with S93R, Y94F
B17: V64 (antibody, V domains shown)
VH: B1 VH with T30Q, G35A, T50I, Q99G, M102F, A112Y
VL: B1 VL with Q55A, R56N
B18: V52 (antibody, V domains shown)
VH: B1 VH with T30E, G35A, T50I, Q99G, M102F, A112Y
VL: B1 VL with S93R, Y94F
B19: V29 (antibody, V domains shown)
VH: B1 VH with T30K, G35A, T50I, M102F, A112Y
VL: B1 VL with R56N, Y94F
B20: V60 (antibody, V domains shown)
VH: B1 VH with S28H, G35A, T50I, T58V, M102F, F110S, A112Y
VL: B1 VL with Q89G, Y94F
B21: V74 (antibody, V domains shown)
VH: B1 VH with T30A, G35A, T50I, T58V, Q99G, M102F, A112Y
VL: B1 VL with R56L, Y94F
B22: V73 (antibody, V domains shown)
VH: B1 VH with T30G, G35A, T50I, S63G, Q99G, M102F, A112Y
VL: B1 VL with L54R, R56N
B23: V36 (antibody, V domains shown)
VH: B1 VH with I34L, G35A, T50I, Q99S, M102F, A112Y
VL: B1 VL with L54R, R56N
B24: V53 (antibody, V domains shown)
VH: B1 VH with G35A, T50I, S63H, M102F, A112Y
VL: B1 VL with R56N, Y94F
B25: V72 (antibody, V domains shown)
VH: B1 VH with T50I, Q99G, M102F, A112Y
VL: B1 VL with Q55V, R56N
B26: V51 (antibody, V domains shown)
VH: B1 VH with G35A, T50I, T58V, Q99G, M102F, A112N
VL: B1 VL with L54R, R56N, Y94F
B27: V39 (antibody, V domains shown)
VH: B1 VH with T30G, G35A, T50I, S61N, Q99G, M102F, A112Y
VL: B1 VL with Q55V, R56N, Y94S

Target: T1, human TREM2
Assay: 2nd screen 10 nM

Row | Binder | Binding Signal (fold over 6E7 Parental antibody) [fold]
1 | B1 | 3.47
2 | B2 | 4.16
3 | B3 | 2.54
4 | B4 | 1.72
5 | B5 | 4.36
6 | B6 | 3.61
7 | B7 | 2.75
8 | B8 | 3.49
9 | B9 | 4.93
10 | B10 | 6.58
11 | B11 | 4.16
12 | B12 | 2.89
13 | B13 | 5.69
14 | B14 | 5.22
15 | B15 | 4.52
16 | B16 | 3.71
17 | B17 | 5.48
18 | B18 | 3.09
19 | B19 | 1.67
20 | B20 | 3.63
21 | B21 | 4.01
22 | B22 | 5.44
23 | B23 | 3.44
24 | B24 | 1.17
25 | B25 | 4.01
26 | B26 | 3.18
27 | B27 | 5.81

Target: T1, human TREM2
Assay: 2nd screen 2 nM

Row | Binder | Binding Signal (fold over 6E7 Parental antibody) [fold]
28 | B1 | 2.83
29 | B2 | 3.41
30 | B3 | 2.3
31 | B4 | 0.58
32 | B5 | 3.44
33 | B6 | 2.63
34 | B7 | 1.29
35 | B8 | 3.69
36 | B9 | 4.34
37 | B10 | 5.02
38 | B11 | 3.39
39 | B12 | 1.87
40 | B13 | 5.67
41 | B14 | 3.63
42 | B15 | 3.74
43 | B16 | 4.91
44 | B17 | 4.88
45 | B18 | 1.78
46 | B19 | 0.84
47 | B20 | 3.35
48 | B21 | 2.54
49 | B22 | 4.17
50 | B23 | 4
51 | B24 | 0.66
52 | B25 | 2.5
53 | B26 | 1.83
54 | B27 | 5.11

Target: T1, human TREM2
Assay: 1st screen (110 nM or 10 nM)

Row | Binder | Binding Signal (fold over 6E7 Parental antibody) [fold]
55 | B1 | 3.57
56 | B2 | 4.48
57 | B3 | 2.42
58 | B4 | 1.74
59 | B5 | 4.34
60 | B6 | 3.08
61 | B7 | 2.05
62 | B8 | 3.46
63 | B9 | 4.57
64 | B10 | 6.51
65 | B11 | 4.1
66 | B12 | 2.49
67 | B13 | 5.5
68 | B14 | 5.08
69 | B15 | 4.64
70 | B16 | 3.76
71 | B17 | 5.41
72 | B18 | 3
73 | B19 | 1.53
74 | B20 | 3.26
75 | B21 | 3.94
76 | B22 | 5.12
77 | B23 | 3.38
78 | B24 | 1.25
79 | B25 | 3.64
80 | B26 | 2.81
81 | B27 | 6.15
